Measured values from PMC2696313.

Molecular target: Δ41-52 hPRL (human prolactin with residues 41-52 removed) (human) (UniProt P01236)
Assay: mass spectrometry

Δ41-52 hPRL (human prolactin with residues 41-52 removed) (from UniProt P01236 29-227) (ligand)
stoichiometry N: 2
